Results reported in US20170015742A1 (published 2017).
Changes are numbered by the printed parent chain.

B1: CODV009 cross-over DVD-Ig (PR-1571821) (bispecific antibody, human IgG1, kappa, L234A L235A)
heavy: EVQLVQSGSELKKPGASVKVSCKASGYTFTNYGMYWVRQAPGQGLEWMGWINTETGKPTYADDFKGRFVFSLDTSVSTAYLQISSLKAEDTAVYYCARTNYYYRSYIFYFDYWGQGTMVTVSSGEVTLRESGPALVKPTQTLTLTCTFSGFSLSTYGMGVGWIRQPPGKALEWLANIWWDDDKYYNPSLKNRLTISKDTSKNQVVLTMTNMDPVDTATYYCARIESIGTTYSFDYWGQGTMVTVSSGGASTKGPSVFPLAPSSKSTSGGTAALGCLVKDYFPEPVTVSWNSGALTSGVHTFPAVLQSSGLYSLSSVVTVPSSSLGTQTYICNVNHKPSNTKVDKKVEPKSCDKTHTCPPCPAPEAAGGPSVFLFPPKPKDTLMISRTPEVTCVVVDVSHEDPEVKFNWYVDGVEVHNAKTKPREEQYNSTYRVVSVLTVLHQDWLNGKEYKCKVSNKALPAPIEKTISKAKGQPREPQVYTLPPSREEMTKNQVSLTCLVKGFYPSDIAVEWESNGQPENNYKTTPPVLDSDGSFFLYSKLTVDKSRWQQGNVFSCSVMHEALHNAYTQKSLSLSPGK
light: EFVLTQSPGTLSLSPGERATLSCERSSGDIGDSYVSWYQQKPGQAPRLVIYADDQRPSGIPDRFSGSGSGTDFTLTISRLEPEDFAVYYCQSYDINIDIVFGGGTKVEIKGGGSGGGDTVLTQSPATLSLSPGERATLSCRASESVSTHMHWYQQKPGQAPRLLIYGASNLESGVPARFSGSGSGTDFTLTISSLEPEDFAVYFCQQSWNDPFTFGQGTKLEIKGGGSGRTVAAPSVFIFPPSDEQLKSGTASVVCLLNNFYPREAKVQWKVDNALQSGNSQESVTEQDSKDSTYSLSSTLTLSKADYEKHKVYACEVTHQGLSSPVTKSFNRGEC
B2: CODV010 cross-over DVD-Ig (PR-1571823) (bispecific antibody, human IgG1, kappa, L234A L235A)
heavy: EVTLRESGPALVKPTQTLTLTCTFSGFSLSTYGMGVGWIRQPPGKALEWLANIWWDDDKYYNPSLKNRLTISKDTSKNQVVLTMTNMDPVDTATYYCARIESIGTTYSFDYWGQGTMVTVSSGEVQLVQSGSELKKPGASVKVSCKASGYTFTNYGMYWVRQAPGQGLEWMGWINTETGKPTYADDFKGRFVFSLDTSVSTAYLQISSLKAEDTAVYYCARTNYYYRSYIFYFDYWGQGTMVTVSSGGASTKGPSVFPLAPSSKSTSGGTAALGCLVKDYFPEPVTVSWNSGALTSGVHTFPAVLQSSGLYSLSSVVTVPSSSLGTQTYICNVNHKPSNTKVDKKVEPKSCDKTHTCPPCPAPEAAGGPSVFLFPPKPKDTLMISRTPEVTCVVVDVSHEDPEVKFNWYVDGVEVHNAKTKPREEQYNSTYRVVSVLTVLHQDWLNGKEYKCKVSNKALPAPIEKTISKAKGQPREPQVYTLPPSREEMTKNQVSLTCLVKGFYPSDIAVEWESNGQPENNYKTTPPVLDSDGSFFLYSKLTVDKSRWQQGNVFSCSVMHEALHNAYTQKSLSLSPGK
light: DTVLTQSPATLSLSPGERATLSCRASESVSTHMHWYQQKPGQAPRLLIYGASNLESGVPARFSGSGSGTDFTLTISSLEPEDFAVYFCQQSWNDPFTFGQGTKLEIKGGGSGGGEFVLTQSPGTLSLSPGERATLSCERSSGDIGDSYVSWYQQKPGQAPRLVIYADDQRPSGIPDRFSGSGSGTDFTLTISRLEPEDFAVYYCQSYDINIDIVFGGGTKVEIKGGGSGRTVAAPSVFIFPPSDEQLKSGTASVVCLLNNFYPREAKVQWKVDNALQSGNSQESVTEQDSKDSTYSLSSTLTLSKADYEKHKVYACEVTHQGLSSPVTKSFNRGEC
B3: CODV012 cross-over DVD-Ig (PR-1571824) (bispecific antibody, human IgG1, kappa, L234A L235A)
heavy: EVQLVQSGSELKKPGASVKVSCKASGYTFTNYGMYWVRQAPGQGLEWMGWINTETGKPTYADDFKGRFVFSLDTSVSTAYLQISSLKAEDTAVYYCARTNYYYRSYIFYFDYWGQGTMVTVSSGGGGSGGGEFVLTQSPGTLSLSPGERATLSCERSSGDIGDSYVSWYQQKPGQAPRLVIYADDQRPSGIPDRFSGSGSGTDFTLTISRLEPEDFAVYYCQSYDINIDIVFGGGTKVEIKGGGSGASTKGPSVFPLAPSSKSTSGGTAALGCLVKDYFPEPVTVSWNSGALTSGVHTFPAVLQSSGLYSLSSVVTVPSSSLGTQTYICNVNHKPSNTKVDKKVEPKSCDKTHTCPPCPAPEAAGGPSVFLFPPKPKDTLMISRTPEVTCVVVDVSHEDPEVKFNWYVDGVEVHNAKTKPREEQYNSTYRVVSVLTVLHQDWLNGKEYKCKVSNKALPAPIEKTISKAKGQPREPQVYTLPPSREEMTKNQVSLTCLVKGFYPSDIAVEWESNGQPENNYKTTPPVLDSDGSFFLYSKLTVDKSRWQQGNVFSCSVMHEALHNAYTQKSLSLSPGK
light: EVTLRESGPALVKPTQTLTLTCTFSGFSLSTYGMGVGWIRQPPGKALEWLANIWWDDDKYYNPSLKNRLTISKDTSKNQVVLTMTNMDPVDTATYYCARIESIGTTYSFDYWGQGTMVTVSSGGGGSGGGDTVLTQSPATLSLSPGERATLSCRASESVSTHMHWYQQKPGQAPRLLIYGASNLESGVPARFSGSGSGTDFTLTISSLEPEDFAVYFCQQSWNDPFTFGQGTKLEIKGGGSGRTVAAPSVFIFPPSDEQLKSGTASVVCLLNNFYPREAKVQWKVDNALQSGNSQESVTEQDSKDSTYSLSSTLTLSKADYEKHKVYACEVTHQGLSSPVTKSFNRGEC
B4: CODV014 cross-over DVD-Ig (PR-1571826) (bispecific antibody, human IgG1, kappa, L234A L235A)
heavy: EVQLVQSGSELKKPGASVKVSCKASGYTFTNYGMYWVRQAPGQGLEWMGWINTETGKPTYADDFKGRFVFSLDTSVSTAYLQISSLKAEDTAVYYCARTNYYYRSYIFYFDYWGQGTMVTVSSGGGGSEFVLTQSPGTLSLSPGERATLSCERSSGDIGDSYVSWYQQKPGQAPRLVIYADDQRPSGIPDRFSGSGSGTDFTLTISRLEPEDFAVYYCQSYDINIDIVFGGGTKVEIKGGSASTKGPSVFPLAPSSKSTSGGTAALGCLVKDYFPEPVTVSWNSGALTSGVHTFPAVLQSSGLYSLSSVVTVPSSSLGTQTYICNVNHKPSNTKVDKKVEPKSCDKTHTCPPCPAPEAAGGPSVFLFPPKPKDTLMISRTPEVTCVVVDVSHEDPEVKFNWYVDGVEVHNAKTKPREEQYNSTYRVVSVLTVLHQDWLNGKEYKCKVSNKALPAPIEKTISKAKGQPREPQVYTLPPSREEMTKNQVSLTCLVKGFYPSDIAVEWESNGQPENNYKTTPPVLDSDGSFFLYSKLTVDKSRWQQGNVFSCSVMHEALHNAYTQKSLSLSPGK
light: B3 light
B5: CODV013 cross-over DVD-Ig (PR-1571825) (bispecific antibody, human IgG1, kappa, L234A L235A)
heavy: EVQLVQSGSELKKPGASVKVSCKASGYTFTNYGMYWVRQAPGQGLEWMGWINTETGKPTYADDFKGRFVFSLDTSVSTAYLQISSLKAEDTAVYYCARTNYYYRSYIFYFDYWGQGTMVTVSSGGGGSGGGEFVLTQSPGTLSLSPGERATLSCERSSGDIGDSYVSWYQQKPGQAPRLVIYADDQRPSGIPDRFSGSGSGTDFTLTISRLEPEDFAVYYCQSYDINIDIVFGGGTKVEIKGGSASTKGPSVFPLAPSSKSTSGGTAALGCLVKDYFPEPVTVSWNSGALTSGVHTFPAVLQSSGLYSLSSVVTVPSSSLGTQTYICNVNHKPSNTKVDKKVEPKSCDKTHTCPPCPAPEAAGGPSVFLFPPKPKDTLMISRTPEVTCVVVDVSHEDPEVKFNWYVDGVEVHNAKTKPREEQYNSTYRVVSVLTVLHQDWLNGKEYKCKVSNKALPAPIEKTISKAKGQPREPQVYTLPPSREEMTKNQVSLTCLVKGFYPSDIAVEWESNGQPENNYKTTPPVLDSDGSFFLYSKLTVDKSRWQQGNVFSCSVMHEALHNAYTQKSLSLSPGK
light: B3 light
B6: CODV021 cross-over DVD-Ig (PR-1577053) (bispecific antibody, human IgG1, kappa, L234A L235A)
heavy: B3 heavy with D163E
light: EVTLRESGPALVKPTQTLTLTCTFSGFSLSTYGMGVGWIRQPPGKALEWLANIWWDDDKYYNPSLKNRLTISKDTSKNQVVLTMTNMDPVDTATYYCARIESIGTTYSFDYWGQGTMVTVSSGGGGSGGGDTVLTQSPATLSLSPGERATLSCRASESVSTHMHWYQQKPGQAPRLLIYGASNLESGVPARFSGSGSGTDFTLTISSLEPEDFAVYFCQQSWNDPFTFGQGTKLEIKGGSRTVAAPSVFIFPPSDEQLKSGTASVVCLLNNFYPREAKVQWKVDNALQSGNSQESVTEQDSKDSTYSLSSTLTLSKADYEKHKVYACEVTHQGLSSPVTKSFNRGEC
B7: CODV011 cross-over DVD-Ig (PR-1575521) (bispecific antibody, human IgG1, kappa, L234A L235A)
heavy: EVQLVQSGSELKKPGASVKVSCKASGYTFTNYGMYWVRQAPGQGLEWMGWINTETGKPTYADDFKGRFVFSLDTSVSTAYLQISSLKAEDTAVYYCARTNYYYRSYIFYFDYWGQGTMVTVSSGGGGSGGGGSEFVLTQSPGTLSLSPGERATLSCERSSGDIGDSYVSWYQQKPGQAPRLVIYADDQRPSGIPDRFSGSGSGTDFTLTISRLEPEDFAVYYCQSYDINIDIVFGGGTKVEIKGGGSGASTKGPSVFPLAPSSKSTSGGTAALGCLVKDYFPEPVTVSWNSGALTSGVHTFPAVLQSSGLYSLSSVVTVPSSSLGTQTYICNVNHKPSNTKVDKKVEPKSCDKTHTCPPCPAPEAAGGPSVFLFPPKPKDTLMISRTPEVTCVVVDVSHEDPEVKFNWYVDGVEVHNAKTKPREEQYNSTYRVVSVLTVLHQDWLNGKEYKCKVSNKALPAPIEKTISKAKGQPREPQVYTLPPSREEMTKNQVSLTCLVKGFYPSDIAVEWESNGQPENNYKTTPPVLDSDGSFFLYSKLTVDKSRWQQGNVFSCSVMHEALHNAYTQKSLSLSPGK
light: EVTLRESGPALVKPTQTLTLTCTFSGFSLSTYGMGVGWIRQPPGKALEWLANIWWDDDKYYNPSLKNRLTISKDTSKNQVVLTMTNMDPVDTATYYCARIESIGTTYSFDYWGQGTMVTVSSGGGGSGGGGSDTVLTQSPATLSLSPGERATLSCRASESVSTHMHWYQQKPGQAPRLLIYGASNLESGVPARFSGSGSGTDFTLTISSLEPEDFAVYFCQQSWNDPFTFGQGTKLEIKGGGSGRTVAAPSVFIFPPSDEQLKSGTASVVCLLNNFYPREAKVQWKVDNALQSGNSQESVTEQDSKDSTYSLSSTLTLSKADYEKHKVYACEVTHQGLSSPVTKSFNRGEC

The binders below were run against recombinant human PDGF-BB (human, UniProt P01127 82-190) (assay: cell-based or functional assay).
recombinant human PDGF-BB, sequence (P01127 82-190 limits assumed): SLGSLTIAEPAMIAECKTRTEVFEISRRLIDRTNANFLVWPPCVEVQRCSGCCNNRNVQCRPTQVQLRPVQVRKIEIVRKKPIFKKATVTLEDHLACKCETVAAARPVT

Row | Binder | NIH-3T3 hPDGF-BB Potency IC50 [nM]
1 | B1 | > 5
2 | B2 | 2.14
3 | B3 | 0.182
4 | B4 | 0.469
5 | B5 | 0.11
6 | B6 | 0.056
7 | B7 | 0.043
